pKd: −log10 of the molar value.
Target: GFP-CD16a (Homo sapiens) (UniProt P08637)
Experiment: SPR

UniProt P08637, sequence (P08637 other isoform, or with tags, fused parts or gaps): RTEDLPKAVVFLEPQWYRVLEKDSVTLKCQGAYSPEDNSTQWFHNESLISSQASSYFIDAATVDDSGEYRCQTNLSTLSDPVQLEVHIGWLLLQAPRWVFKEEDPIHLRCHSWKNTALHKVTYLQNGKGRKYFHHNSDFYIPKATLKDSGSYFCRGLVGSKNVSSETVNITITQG

pKd: 6.44
Substance: rituximab

Source: article PMC10995120
